Results on three molecules are retold here after article doi:10.1101/096651 (bioRxiv, 2016).

Common to all, as to experiment: SEC
On the technique in general: Size exclusion chromatography separates by hydrodynamic size, large species first.

For series [1], the target named is Apo-COCP (colorless apoprotein of COCP, OCP-CTD without carotenoid) (Synechocystis sp. PCC 6803) (UniProt P74102).
Series [2] addresses C-terminal OCP-related Carotenoid Protein (COCP), carotenoid-bound OCP-CTD (Synechocystis sp. PCC 6803) (UniProt P74102).
Series [3] concerns the molecule itself.

The molecule “Apo-COCP (colorless apoprotein of COCP, OCP-CTD without carotenoid) (from UniProt P74102 1-317) (domain or fragment)” displayed a stoichiometry N in series [1] of 2. “C-terminal OCP-related Carotenoid Protein (COCP), carotenoid-bound OCP-CTD (from UniProt P74102 1-317) (domain or fragment)”: the stoichiometry N in series [2] is 2.

B1: Fluorescence Recovery Protein (FRP) (natural protein)
chain: MLQTAEAPWSQAETQSAHALFRKAYQRELDGLLATVQAQASQITQIDDLWKLHDFLSAKRHEIDGKYDDRQSVIIFVFAQLLKEGLVQAEELTFLAADKQSKIKALARL
As to B1, in series [3], the “stoichiometry N” value was found to be 2.

By stoichiometry N is commonly meant a count of units in the complex or per binding partner.
